Data reported in patent publication US20180244758A1 (MAPP BIOPHARMACEUTICAL, published 2018).

How the values were obtained:
EBOV GP = target: T1, EBOV GP (Ebola virus (EBOV), UniProt Q05320 33-637)
T1 sequence: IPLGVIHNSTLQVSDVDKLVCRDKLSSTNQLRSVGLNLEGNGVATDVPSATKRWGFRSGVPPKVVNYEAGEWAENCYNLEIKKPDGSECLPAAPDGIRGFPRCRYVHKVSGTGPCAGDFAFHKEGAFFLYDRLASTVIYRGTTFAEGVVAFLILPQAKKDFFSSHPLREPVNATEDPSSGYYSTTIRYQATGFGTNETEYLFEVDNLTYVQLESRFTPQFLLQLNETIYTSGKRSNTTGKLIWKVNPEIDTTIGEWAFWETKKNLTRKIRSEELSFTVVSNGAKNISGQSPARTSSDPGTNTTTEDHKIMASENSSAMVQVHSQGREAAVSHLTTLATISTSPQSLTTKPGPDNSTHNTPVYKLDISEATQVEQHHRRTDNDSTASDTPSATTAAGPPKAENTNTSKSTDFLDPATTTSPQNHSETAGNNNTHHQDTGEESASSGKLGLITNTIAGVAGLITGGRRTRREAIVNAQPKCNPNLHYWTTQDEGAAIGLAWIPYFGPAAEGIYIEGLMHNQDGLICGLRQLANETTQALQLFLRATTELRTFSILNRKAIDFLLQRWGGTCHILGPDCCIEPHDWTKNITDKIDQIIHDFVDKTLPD

[1] = target: T2, EBOV GP on rVSV particles (Ebola virus (EBOV), UniProt Q05320 33-676); test: cell-based or functional assay
T2 sequence: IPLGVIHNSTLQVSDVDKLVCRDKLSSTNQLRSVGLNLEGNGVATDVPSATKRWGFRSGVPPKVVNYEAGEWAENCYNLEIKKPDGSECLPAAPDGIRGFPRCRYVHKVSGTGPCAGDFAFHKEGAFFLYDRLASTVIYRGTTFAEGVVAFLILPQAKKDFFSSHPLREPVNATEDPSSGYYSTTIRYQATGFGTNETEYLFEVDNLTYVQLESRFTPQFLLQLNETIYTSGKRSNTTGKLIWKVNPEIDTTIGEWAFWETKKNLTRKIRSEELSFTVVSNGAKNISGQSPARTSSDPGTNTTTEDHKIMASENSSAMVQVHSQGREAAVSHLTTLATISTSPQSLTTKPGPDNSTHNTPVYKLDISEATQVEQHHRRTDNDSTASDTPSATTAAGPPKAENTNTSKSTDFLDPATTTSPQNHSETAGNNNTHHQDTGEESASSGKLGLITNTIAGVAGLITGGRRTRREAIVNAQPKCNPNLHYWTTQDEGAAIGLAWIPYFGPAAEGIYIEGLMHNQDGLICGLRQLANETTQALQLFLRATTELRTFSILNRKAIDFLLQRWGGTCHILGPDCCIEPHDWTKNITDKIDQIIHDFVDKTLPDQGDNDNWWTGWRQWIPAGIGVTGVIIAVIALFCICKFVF

[2] = target: T3, SUDV GP on rVSV particles (Sudan virus (SUDV), UniProt Q66814 33-676); test: cell-based or functional assay
T3 sequence: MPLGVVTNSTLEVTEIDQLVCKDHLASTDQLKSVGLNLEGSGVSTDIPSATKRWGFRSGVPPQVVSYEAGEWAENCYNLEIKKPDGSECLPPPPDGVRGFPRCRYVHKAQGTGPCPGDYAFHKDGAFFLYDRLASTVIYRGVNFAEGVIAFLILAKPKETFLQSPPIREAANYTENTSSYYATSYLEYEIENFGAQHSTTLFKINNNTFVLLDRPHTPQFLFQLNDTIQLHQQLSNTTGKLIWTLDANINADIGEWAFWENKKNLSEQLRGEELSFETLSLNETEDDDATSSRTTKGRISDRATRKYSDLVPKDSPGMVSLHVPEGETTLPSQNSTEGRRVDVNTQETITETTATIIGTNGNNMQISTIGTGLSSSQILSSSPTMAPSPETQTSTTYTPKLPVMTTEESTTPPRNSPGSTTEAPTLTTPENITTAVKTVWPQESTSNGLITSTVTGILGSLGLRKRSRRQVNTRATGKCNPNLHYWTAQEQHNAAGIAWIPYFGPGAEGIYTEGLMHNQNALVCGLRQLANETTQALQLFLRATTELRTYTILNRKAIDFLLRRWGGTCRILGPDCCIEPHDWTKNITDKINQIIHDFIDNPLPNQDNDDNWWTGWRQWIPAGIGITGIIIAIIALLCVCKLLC

[3] = target: BDBV GP on rVSV particles (Bundibugyo virus (BDBV)); test: cell-based or functional assay
[4] = target: T4, RESTV GP on rVSV particles (Reston virus (RESTV), UniProt Q66799 34-677); test: cell-based or functional assay
T4 sequence: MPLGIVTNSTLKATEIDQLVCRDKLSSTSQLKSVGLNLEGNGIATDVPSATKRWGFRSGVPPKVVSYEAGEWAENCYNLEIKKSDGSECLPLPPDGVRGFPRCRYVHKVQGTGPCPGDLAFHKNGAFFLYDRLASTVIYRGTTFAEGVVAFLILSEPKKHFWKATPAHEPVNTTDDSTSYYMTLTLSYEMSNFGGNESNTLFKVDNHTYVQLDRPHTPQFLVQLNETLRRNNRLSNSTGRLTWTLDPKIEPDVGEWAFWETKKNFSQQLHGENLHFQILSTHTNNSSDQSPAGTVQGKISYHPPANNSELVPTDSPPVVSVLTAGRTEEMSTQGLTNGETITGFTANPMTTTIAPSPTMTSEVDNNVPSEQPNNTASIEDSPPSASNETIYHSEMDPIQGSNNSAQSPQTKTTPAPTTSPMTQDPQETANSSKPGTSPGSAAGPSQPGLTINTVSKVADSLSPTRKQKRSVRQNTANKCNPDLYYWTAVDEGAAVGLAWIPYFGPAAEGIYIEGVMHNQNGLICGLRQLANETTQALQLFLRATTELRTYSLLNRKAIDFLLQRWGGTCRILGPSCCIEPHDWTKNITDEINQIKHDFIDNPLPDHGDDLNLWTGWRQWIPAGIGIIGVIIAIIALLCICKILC

| Binder | Kd (EBOV GP) [pM] | IC50 (nM), neutralization of rVSV-GP [1] [nM] | IC50 (nM), neutralization of rVSV-GP [2] [nM] | IC50 (nM), neutralization of rVSV-GP [3] [nM] | IC50 (nM), neutralization of rVSV-GP [4] [nM] |
| --- | --- | --- | --- | --- | --- |
| mAb PE-05 (antibody, V domains shown) VH: QVQLQESGGGLVKPGRSLRLSCTASGFTFGDYAMSWFRQAPGKGLEWVGFLRSKAYGGTAEYAASVKGRFTMSRDDSKSIAYLQMNSLKTEDTAVYFCTRDGFRGSSWGYSYYGMDVWGQGTTVTVSS VL: not shown | 44000 |  |  |  |  |
| mAb PE-87 (antibody, V domains shown) VH: QVQLVQSGVTLVQPGGSLRVSCAASGFTFSSYAMSWVRQAPGKGLEWVSAISGLGGSTYYADSVKGRFTISRDNSKNTLYLQMNSLRAEDTAVYYCAKDHRVWAAGYHFDYWGQGALVTVSS VL: DIVLTQSPSTLSASVGDRVTITCRASQSISSWLAWYQQKPGEAPKLLISDASSLESGVPSRFSGSGSGTEFTLTISSLQPDDFATYYCQQYYSSPTFGGGTKVEIK | < 10 | 1 | 0.8 | 0.4 | 0.1 |
| mAb PE-16 (antibody, V domains shown) VH: QVQLVQSGAEVTKPGASVKVSCKASGYTFTTYYMHWVRQAPGQGLEWVGIINPSGGITRYAQKFQGRVTLTRDTSTTTVYMELSSLRSEDTAVYYCARDRYPVLFATDYGMDVWGQGTTVTVSS VL: DIVMTQSPATLSLSPGERATLSCRASQSVSGYLAWYQQKPGQAPRLLIYDASNRATGIPARFSGSGSGTDFTLTISSLEPEDFAVYYCQQRSIWPPGVTFGGGTKVEIK | 160 |  |  |  |  |
| mAb PE-47 (antibody, V domains shown) VH: EVQLVESGGGLVKPGGSLRLSCAASGFTFSNAWMSWVRQAPGEGLEWVGRIKSKTDGGTIDYAAPVKGRFTISRDDSKNTVYLQMTSLKTEDTAVYYCTTYTEDMQYFDWLLRGGETFDYWGQGTLVTVSS VL: DIQMTQSPSSLSASVGDRVTITCRASQYISTYLNWYQQKPGKAPKLLIYAAYNLQSGVPSRFSGSGSGTDFTLTISSLQPEDFATYYCQQSYSTPGRYTFGQGTKVEIK | 3500 |  |  |  |  |
| mAb PE-24 (antibody, V domains shown) VH: EVQLVESGGGLVQPGGSLRLSCAASGFTFSSYAMSWVRQAPGKGLEWVSEISGLGGSTYYADSAKGRFTISRDNSKSTLYLQMNSLRAEDTAVYYCAKDHRVWAPGYYFDHWGQGTLVTVSS VL: DIVLTQSPSTLSASVGDRVTITCRASQSISSWLAWYQQKPGKAPKLLIYDASSLESGVPSRFSGSGSGTEFTLTISSLQPDDFATYFCQQYNRSPTFGGGTKVEIK | 1000 |  |  |  |  |
